Reference: patent publication US20060034835A1 (Genentech, published 2006)

T1: human CD20 (human, UniProt P11836 1-297)
T1 construct: whole, on cells; also called CD20 antigen; Bp35
T1 sequence (looked up): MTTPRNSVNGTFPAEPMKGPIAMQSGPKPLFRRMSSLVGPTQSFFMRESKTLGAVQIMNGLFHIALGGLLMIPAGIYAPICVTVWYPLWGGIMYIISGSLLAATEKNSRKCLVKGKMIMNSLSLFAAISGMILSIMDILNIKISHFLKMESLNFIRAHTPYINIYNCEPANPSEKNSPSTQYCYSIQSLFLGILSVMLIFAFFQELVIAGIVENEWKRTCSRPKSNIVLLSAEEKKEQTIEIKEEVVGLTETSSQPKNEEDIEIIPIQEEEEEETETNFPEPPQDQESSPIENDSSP


Tests used:
[1] = target: human CD20 (human) (UniProt P11836); assay: cell-based or functional assay
[2] = target: T1, human CD20; assay: cell-based ELISA on WIL2-S cells
Description: To measure relative binding affinities to the CD20 antigen, a cell-based ELISA assay was developed. […] The cells were washed with PBS containing 1% FBS (assay buffer) and seeded at 250-300,000 cell/well in 96-well round bottom plates (Nunc, Roskilde, Denmark). […] The plates were buried in ice and incubated for 45 min. To remove the unbound antibody, 0.1 mL assay buffer were added to the wells. Plates were centrifuged and supernatants were removed. Cells were washed two more times with 0.2 mL assay buffer. Antibody bound to the plates was detected by adding peroxidase conjugated goat anti-human Fc antibody (Jackson ImmunoResearch, West Grove, Pa.) to the plates. After a 45 min incubation, cells were washed as described before. TMB substrate (3,3′,5,5′-tetramethyl benzidine; Kirkegaard & Perry Laboratories, Gaithersburg, Md.) was added to the plates. The reaction was stopped by adding 1 M phosphoric acid. Titration curves were fit with a four-parameter nonlinear regression curve-fitting program (KaleidaGraph, Synergy software, Reading, Pa.). The absorbance at the midpoint of the titration curve (mid-OD) and its corresponding concentration of the standard were determined. Then the concentration of each variant at this mid-OD was determined, and the concentration of the standard was divided by that of each variant.

Row | ADCC: EC50(variant)/EC50(2H7.v16) [1] | ADCC: EC50(variant)/EC50(Rituxan) [1] | CDC: EC50(variant)/EC50(Rituxan) [1] | apoptosis of Ramos cells: fraction of Annexin V stained cells at 10 nM crosslinked antibody [1] [%] | apoptosis of Ramos cells: fraction of doubly labeled cells at 10 nM crosslinked antibody [1] [%] | apoptosis of Ramos cells: live cells counted per 10 s at 10 nM crosslinked antibody (cells per 10 s) [1] | Relative binding [2] | Molecule
1 | 5.3 | 1 | 1 | 16.5 | 38 | 3100 | – | Rituxan (rituximab) (antibody)
2 | – | – | – | – | – | – | 0.99 ratio to 2H7.v16 | 2H7 version 166 (antibody, human IgG1, kappa, V domains shown, IgG1; Y100b is deleted (written as a substitution with an empty new residue)) VH: EVQLVESGGGLVQPGGSLRLSCAASGYTFTSYNMHWVRQAPGKGLEWVGAIYPGNGDTSYNQKFKGRFTISVDKSKNTLYLQMNSLRAEDTAVYYCARVVYYGGDWYFDVWGQGTLVTVSS VL: DIQMTQSPSSLSASVGDRVTITCRASSSVSYMHWYQQKPGKAPKPLIYAPSNLASGVPSRFSGSGSGTDFTLTISSLQPEDFATYYCQQWSFNPPTFGQGTKVEIKR
